From paper doi:10.1101/2025.04.02.646830 (bioRxiv, 2025)
* marks the point of attachment. 6xHis = N-terminal hexahistidine tag, N[C@@H](Cc1c[nH]cn1)C(=O)N[C@@H](Cc1c[nH]cn1)C(=O)N[C@@H](Cc1c[nH]cn1)C(=O)N[C@@H](Cc1c[nH]cn1)C(=O)N[C@@H](Cc1c[nH]cn1)C(=O)N[C@@H](Cc1c[nH]cn1)C(=O)*

Target: T1, FtsA (E. coli, UniProt P0ABH0 1-420)
T1 sequence (looked up): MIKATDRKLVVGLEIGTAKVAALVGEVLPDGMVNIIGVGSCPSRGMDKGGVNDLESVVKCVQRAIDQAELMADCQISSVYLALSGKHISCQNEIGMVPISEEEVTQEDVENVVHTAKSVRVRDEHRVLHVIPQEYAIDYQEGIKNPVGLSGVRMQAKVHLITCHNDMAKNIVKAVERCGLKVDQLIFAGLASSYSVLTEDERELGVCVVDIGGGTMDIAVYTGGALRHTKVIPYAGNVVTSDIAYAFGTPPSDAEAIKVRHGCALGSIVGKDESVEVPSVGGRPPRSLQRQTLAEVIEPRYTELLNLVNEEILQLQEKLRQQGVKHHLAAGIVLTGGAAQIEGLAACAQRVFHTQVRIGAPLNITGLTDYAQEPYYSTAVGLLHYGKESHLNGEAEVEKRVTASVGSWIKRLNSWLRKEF
Assay: TIRF microscopy of FtsZ membrane recruitment on supported lipid bilayers

B1: ^N-pepPBP1b (residues 1-64) peptide, N-terminal 6x-His tag, C-terminal cysteine, labelled with cyanine 5 (peptide)
peptide: 6xHis-MAGNDREPIGRKGKPTRPVKQKVSRRRYEDDDDYDDYDDYEDEEPMPRKGKGKGKGRKPRGKRGC(sulfo‑cyanine5‑maleimide)
Q: Does B1 bind?
A: binds

B2: Alexa Fluor 488-labeled FtsZ (natural protein, E. coli, UniProt P0A9A6 1-383, looked up)
chain: MFEPMELTNDAVIKVIGVGGGGGNAVEHMVRERIEGVEFFAVNTDAQALRKTAVGQTIQIGSGITKGLGAGANPEVGRNAADEDRDALRAALEGADMVFIAAGMGGGTGTGAAPVVAEVAKDLGILTVAVVTKPFNFEGKKRMAFAEQGITELSKHVDSLITIPNDKLLKVLGRGISLLDAFGAANDVLKGAVQGIAELITRPGLMNVDFADVRTVMSEMGYAMMGSGVASGEDRAEEAAEMAISSPLLEDIDLSGARGVLVNITAGFDLRLDEFETVGNTIRAFASDNATVVIGTSLDPDMNDELRVTVVATGIGMDKRPEITLVTNKQVQQPVMDRYQQHGMAPLTQEQKPVAKVVNDNAPQTAKEPDYLDIPAFLRKQAD
modifications: Alexa Fluor 488 label (site not stated)
Q: Does B2 bind?
A: binds
